The values that follow come from patent publication US20140140926A1.

No end group written: not given here.

Assay [1] deals with soluble hSIRP-alpha (human) (UniProt P78324). In words: flow cytometry, biotinylated peptide on streptavidin polystyrene beads binding soluble hSIRP-alpha, saturation binding fit. A general note: Flow cytometry measures light scatter and fluorescence of single cells or particles in a stream.
For assay [2] the target is unchanged. Description: inhibition of soluble hSIRP-alpha binding to polypeptide beads by soluble peptide.

The term Kd denotes the concentration at which binding is half-saturated. Take GNYTCEVTELTREGETIIELK (also: biotin via aminohexanoic acid (C6) or PEG linker, site not given here) [FG-peptide (21-aa, …)]: in assay [1], the Kd was in the range of 110 to 160 nM.
The term Ki denotes the dissociation constant of the complex between target and ligand, obtained from inhibition or displacement. In turn, EVTELTREGE (synthesized without attachment of biotin) [FG-hairpin (10-aa, …)] gave an inhibitory constant (Ki) in assay [2] of 100 to 200 nM.
